The values below come from article PMC5034325.

This assay has as its target human taste receptor T1R2-T1R3 (human) (UniProt Q8TE23).
UniProt Q8TE23, sequence (Q8TE23 20-839, chain 1 of 2): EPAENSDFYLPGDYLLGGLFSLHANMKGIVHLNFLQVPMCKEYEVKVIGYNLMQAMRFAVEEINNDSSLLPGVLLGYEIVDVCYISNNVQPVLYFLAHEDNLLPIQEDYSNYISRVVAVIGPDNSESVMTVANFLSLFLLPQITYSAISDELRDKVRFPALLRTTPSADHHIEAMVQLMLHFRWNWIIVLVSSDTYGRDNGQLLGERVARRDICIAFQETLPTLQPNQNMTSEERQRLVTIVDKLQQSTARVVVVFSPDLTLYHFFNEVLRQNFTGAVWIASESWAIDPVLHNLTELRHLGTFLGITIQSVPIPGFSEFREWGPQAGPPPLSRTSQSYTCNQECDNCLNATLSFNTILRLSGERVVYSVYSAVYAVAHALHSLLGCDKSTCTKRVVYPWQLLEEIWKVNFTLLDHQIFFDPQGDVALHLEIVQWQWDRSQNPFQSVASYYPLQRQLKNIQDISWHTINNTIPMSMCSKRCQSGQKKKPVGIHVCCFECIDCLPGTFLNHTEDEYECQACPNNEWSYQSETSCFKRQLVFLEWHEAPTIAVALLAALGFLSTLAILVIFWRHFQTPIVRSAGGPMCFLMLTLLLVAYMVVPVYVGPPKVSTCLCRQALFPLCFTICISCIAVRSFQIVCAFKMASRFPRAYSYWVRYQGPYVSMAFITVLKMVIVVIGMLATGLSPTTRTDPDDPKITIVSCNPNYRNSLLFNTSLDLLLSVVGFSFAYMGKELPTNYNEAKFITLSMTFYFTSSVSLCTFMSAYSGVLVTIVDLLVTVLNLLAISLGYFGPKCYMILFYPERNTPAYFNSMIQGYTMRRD
UniProt Q8TE23, sequence (Q7RTX0 21-852, chain 2 of 2, further chain): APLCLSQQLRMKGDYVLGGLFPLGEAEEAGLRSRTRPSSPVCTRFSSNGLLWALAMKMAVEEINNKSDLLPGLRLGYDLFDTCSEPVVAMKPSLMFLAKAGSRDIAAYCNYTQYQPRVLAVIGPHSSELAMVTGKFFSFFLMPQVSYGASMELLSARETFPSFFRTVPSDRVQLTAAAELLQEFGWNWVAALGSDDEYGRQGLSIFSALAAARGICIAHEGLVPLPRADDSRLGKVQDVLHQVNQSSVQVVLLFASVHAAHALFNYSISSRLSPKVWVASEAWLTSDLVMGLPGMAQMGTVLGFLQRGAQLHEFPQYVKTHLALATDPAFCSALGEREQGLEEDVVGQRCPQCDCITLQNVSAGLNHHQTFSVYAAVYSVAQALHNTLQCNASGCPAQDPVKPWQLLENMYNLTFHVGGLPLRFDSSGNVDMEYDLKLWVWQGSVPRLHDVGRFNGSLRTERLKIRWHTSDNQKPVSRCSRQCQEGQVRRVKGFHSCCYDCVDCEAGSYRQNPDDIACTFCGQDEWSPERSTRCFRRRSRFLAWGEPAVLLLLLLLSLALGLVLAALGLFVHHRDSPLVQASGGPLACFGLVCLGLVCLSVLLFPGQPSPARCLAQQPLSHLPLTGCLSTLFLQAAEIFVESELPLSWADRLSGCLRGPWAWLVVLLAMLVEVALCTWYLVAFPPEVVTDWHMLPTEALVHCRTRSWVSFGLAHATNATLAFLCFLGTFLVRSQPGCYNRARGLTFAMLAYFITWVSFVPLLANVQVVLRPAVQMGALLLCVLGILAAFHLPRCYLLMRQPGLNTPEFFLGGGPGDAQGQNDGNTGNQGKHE

Consider “C41S, Y65R, S67K, D68N-MNEI (Mut1) (ligand)”, for which the sweetness threshold, triangle test by a panel of tasters, 5 to 500 nM (also printed as 2.50 mg/L) stood at 223 nM.
Turning to “E23Q, Q28K, C41S, Y65R-MNEI (Mut3) (ligand)”, the sweetness threshold, triangle test by a panel of tasters, 5 to 500 nM (also printed as 0.28 mg/L) was 25 nM.
For Y65R-MNEI (ligand), the sweetness threshold, triangle test by a panel of tasters, 5 to 500 nM (also printed as 0.62 mg/L) is 55 nM.
With Q28K, C41S, Y65R-MNEI (Mut2) (ligand), the sweetness threshold, triangle test by a panel of tasters, 5 to 500 nM (also printed as 0.40 mg/L) worked out at 36 nM.
